# Measured values from paper PMC4496087.
# Tests used:
# [1] = biological target: Wild type CCR5, endogenous on human monocyte-derived macrophages (human (endogenous in monocyte-derived macrophages)) (UniProt P51681)
# [2] = biological target: Wild type CCR5, endogenous on human monocyte-derived macrophages (human (endogenous in monocyte-derived macrophages)), P51681; test: radioligand binding; competition: human macrophages (membranes) pretreated with different amounts of CCR5-T4L or CCL5, or CCL5 plus CCR5-T4L; specific binding of 0.3 nmol/L [125I]-CCL5, 2 h at 37°C, unbound ligand removed through a 10% sucrose/PBS cushion, gamma counting; conditions: remark: other sources report otherwise
Molecule,"[35S]GTPγS binding to membranes of human MDM (G-protein activation), EC50 [1] [nM]",EC50 [2] [nM]
Soluble recombinant CCR5-T4L protein (receptor),5460,
"Chemokine (C-C motif) ligand 5 (CCL5), unlabelled, P13501 24-91 (ligand) SPYSSDTTPCCFAYIARPLPRAHIKEYFYTSGKCSNPAVVFVTRKNRQVCANPEKKWVREYINSLEMS",,0.046
